Assays:
Type in all cases: biochemical
P160^BCR = target: T1, P160^BCR (Homo sapiens, UniProt P11274, Y360F); assay: Immune complex kinase assay of mutant P160 BCR, autophosphorylation
T1 construct: The original human full length BCR cDNAs were obtained from Dr. John Groffen; expressed in transfected cells; host or cells: COS-1
T1 sequence (P11274 1-1271 Y360F): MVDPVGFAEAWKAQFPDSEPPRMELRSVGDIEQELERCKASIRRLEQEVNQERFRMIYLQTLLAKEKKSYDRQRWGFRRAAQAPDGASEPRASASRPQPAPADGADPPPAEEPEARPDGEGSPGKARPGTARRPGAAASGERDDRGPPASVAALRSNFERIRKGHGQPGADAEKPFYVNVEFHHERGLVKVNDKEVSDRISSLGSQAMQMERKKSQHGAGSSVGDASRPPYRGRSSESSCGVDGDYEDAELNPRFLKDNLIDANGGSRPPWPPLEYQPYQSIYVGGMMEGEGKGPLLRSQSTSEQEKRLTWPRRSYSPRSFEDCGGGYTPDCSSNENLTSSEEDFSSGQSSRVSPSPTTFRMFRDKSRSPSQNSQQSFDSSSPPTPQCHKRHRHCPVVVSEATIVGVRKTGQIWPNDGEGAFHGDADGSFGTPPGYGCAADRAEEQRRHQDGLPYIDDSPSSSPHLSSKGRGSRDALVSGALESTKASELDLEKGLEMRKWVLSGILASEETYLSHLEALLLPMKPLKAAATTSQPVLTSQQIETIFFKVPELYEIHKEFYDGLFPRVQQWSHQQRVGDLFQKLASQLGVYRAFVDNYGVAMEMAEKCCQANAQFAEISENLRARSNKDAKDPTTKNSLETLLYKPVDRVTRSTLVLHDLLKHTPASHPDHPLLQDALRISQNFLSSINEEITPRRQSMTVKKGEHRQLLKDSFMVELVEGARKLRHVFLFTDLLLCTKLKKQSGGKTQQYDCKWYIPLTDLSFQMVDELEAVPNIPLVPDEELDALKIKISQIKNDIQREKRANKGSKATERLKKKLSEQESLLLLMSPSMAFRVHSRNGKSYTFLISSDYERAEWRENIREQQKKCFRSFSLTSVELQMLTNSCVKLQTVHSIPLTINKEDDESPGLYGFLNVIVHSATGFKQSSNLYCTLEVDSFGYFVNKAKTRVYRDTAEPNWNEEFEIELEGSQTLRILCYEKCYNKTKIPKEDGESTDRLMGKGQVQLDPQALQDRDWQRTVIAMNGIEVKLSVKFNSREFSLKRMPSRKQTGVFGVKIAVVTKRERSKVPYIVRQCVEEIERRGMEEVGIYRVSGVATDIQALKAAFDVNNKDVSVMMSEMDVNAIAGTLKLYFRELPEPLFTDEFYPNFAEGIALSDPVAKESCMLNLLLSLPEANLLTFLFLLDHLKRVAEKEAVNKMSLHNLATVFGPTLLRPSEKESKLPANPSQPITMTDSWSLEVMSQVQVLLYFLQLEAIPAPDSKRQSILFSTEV
Excerpt: (§1) Mutant forms of P160^BCR were expressed in COS-1 cells and tested for serine/threonine kinase activities in immune complex kinase assays.

casein = assay: Immune complex kinase assay of mutant P160 BCR, transphosphorylation of casein
Excerpt: as §1
(§2) Using the intensities of the P160^BCR bands as an indication of the amount of active P160^BCR in the immune complex and the intensities of the casein bands as a measure of transphosphorylation activity, the transphosphorylation activity of the Y360F Bcr mutant was reduced about sevenfold, compared with that of the wild type. Similarly, the Y360F Bcr mutant was also defective in transphosphorylating another exogenous substrate, histone H1.
The amounts of Bcr within these immune complexes were quantitated in two ways. In a first method, the amounts of Bcr mutants would be underestimated by about 10%, compared with that of the wild type. On the basis of these measurements, the specific activity of transkinase activity (casein intensity/P160^BCR intensity) of the Y360F Bcr mutant (0.03) was reduced more than 20-fold in this study, compared with that of the wild type.
The second method of estimating the amounts of P160^BCR in immune complexes involved the Western blotting of these immune complexes with an anti-Bcr antibody. The specific activity of Y360F was reduced by about sixfold. […] By using autophosphorylation of the Bcr protein as a measure of its relative amount, the reduction of Bcr's transkinase by the Y360F mutation was about sevenfold, confirming the results obtained by the Western blot method.

histone H1 = assay: Immune complex kinase assay of mutant P160 BCR, transphosphorylation of histone H1
Excerpt: as §1, §2

[1] = first method of quantitating Bcr in immune complexes

P160^BCR autophosphorylation (P160^BCR): not detectably altered
Reduction of transphosphorylation activity compared with wild type, relative to P160 BCR autophosphorylation band intensity (casein; casein band intensity / P160 BCR band intensity): about sevenfold
Ability to transphosphorylate casein compared with wild-type Bcr (casein; mutant P160 BCR expressed in COS-1 cells): severely inhibited
Transphosphorylation of histone H1 (histone H1): defective
B1: Y360F Bcr mutant: P160 BCR with tyrosine 360 to phenylalanine mutation, expressed in COS-1 cells (protein, UniProt P11274 1-1271, looked up, variant Y360F)
Breakpoint cluster region …: T1 sequence (P11274 1-1271 Y360F)
Reduction of specific activity compared with wild type (casein; P160 BCR amount by Western blotting of immune complexes with anti-Bcr antibody): about sixfold
Reduction of specific transkinase activity compared with wild type (casein; [1]): more than 20 fold
Specific activity of transkinase activity (casein intensity/P160^BCR intensity) (casein; [1]): 0.03

From patent US6537804B1, “BCR-ABL directed compositions and uses for inhibiting Philadelphia chromesome stimulated cell growth” (Board of Regents, The University of Texas Systems, priority 1995, dated 2003)
